The source of these data is publication PMC9482650, “Quantitative fragmentomics allow affinity mapping of interactomes” (Nature Communications, 2022).

Some targets named below: TJP1_2, Q07157; Inadl_4, Q8NI35; GRIP2_5, Q9C0E4; DLG2_3, Q15700; GRIP2_3, Q9C0E4; AHNAK1, Q09666; GORASP2, Q9H8Y8; HTRA2, O43464.
Holding throughout (assay): holdup assay
Parameters in all cases: key: below the threshold = too weak to quantify, mostly under pKd 3.1 to 4

The target in the next test is T1, DFNB31_2, Q9P202.
T1 sequence (Q9P202 274-371, limits assumed, looked up): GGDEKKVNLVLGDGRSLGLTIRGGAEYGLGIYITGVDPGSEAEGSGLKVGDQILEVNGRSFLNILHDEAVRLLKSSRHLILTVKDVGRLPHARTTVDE

For a further test, the target named is T2, MPP6, Q9NZW5.
T2 sequence (Q9NZW5 125-219, limits assumed, looked up): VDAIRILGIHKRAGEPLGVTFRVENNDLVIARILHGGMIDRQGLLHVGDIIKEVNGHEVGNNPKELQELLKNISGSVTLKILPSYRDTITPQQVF

In a further test the target is T3, APBA1_1, Q02410.
T3 sequence (Q02410 651-752, limits assumed, looked up): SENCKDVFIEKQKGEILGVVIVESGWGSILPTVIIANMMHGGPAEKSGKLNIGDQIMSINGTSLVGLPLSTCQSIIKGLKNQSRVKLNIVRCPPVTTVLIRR

The next test concerns the target T4, SIPA1L2, Q9P2F8.
T4 sequence (Q9P2F8 945-1036, limits assumed, looked up): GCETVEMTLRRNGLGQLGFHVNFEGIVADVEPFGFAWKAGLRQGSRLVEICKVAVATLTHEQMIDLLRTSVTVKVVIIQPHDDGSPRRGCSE

The target of the next test is T5, CARD11, Q9BXL7.
T5 sequence (Q9BXL7 662-765, limits assumed, looked up): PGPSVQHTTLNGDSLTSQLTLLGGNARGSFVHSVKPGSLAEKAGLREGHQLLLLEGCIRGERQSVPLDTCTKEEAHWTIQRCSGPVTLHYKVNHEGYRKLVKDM

The target of the next test is T6, GRIP1_2, Q9Y3R0.
T6 sequence (Q9Y3R0 145-248, limits assumed, looked up): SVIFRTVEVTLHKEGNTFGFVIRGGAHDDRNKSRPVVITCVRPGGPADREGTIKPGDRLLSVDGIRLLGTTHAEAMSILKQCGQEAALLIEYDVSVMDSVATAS

Another test has as its target T7, GRIP1_5, Q9Y3R0.
T7 sequence (Q9Y3R0 568-668, limits assumed, looked up): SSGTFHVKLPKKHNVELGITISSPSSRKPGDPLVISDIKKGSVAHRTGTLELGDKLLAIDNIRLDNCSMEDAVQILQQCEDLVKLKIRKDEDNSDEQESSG

For a further test, the target named is T8, TX1BP3, O14907.
T8 sequence (O14907 10-122, limits assumed, looked up): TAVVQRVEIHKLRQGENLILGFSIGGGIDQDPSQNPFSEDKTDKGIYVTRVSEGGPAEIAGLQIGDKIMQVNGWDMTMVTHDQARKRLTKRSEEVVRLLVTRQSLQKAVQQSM

For a further test, the target named is T9, LNX2_2, Q8N448.
T9 sequence (Q8N448 334-432, limits assumed, looked up): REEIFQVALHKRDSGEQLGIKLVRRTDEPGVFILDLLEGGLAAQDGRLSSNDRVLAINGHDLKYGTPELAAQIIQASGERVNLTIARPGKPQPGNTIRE

The target of the next test is T10, GRIP1_3, Q9Y3R0.
T10 sequence (Q9Y3R0 247-346, limits assumed, looked up): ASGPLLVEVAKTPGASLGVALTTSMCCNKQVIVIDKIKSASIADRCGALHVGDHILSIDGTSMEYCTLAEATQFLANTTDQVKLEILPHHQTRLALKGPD

In the next test the target is T11, PTPN13_1, Q12923.
T11 sequence (Q12923 1088-1188, limits assumed, looked up): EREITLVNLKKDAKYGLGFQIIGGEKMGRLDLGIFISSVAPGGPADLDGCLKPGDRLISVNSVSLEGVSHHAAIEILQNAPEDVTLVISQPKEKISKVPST

In a further test the target is T12, TJP3_3, O95049.
T12 sequence (O95049 375-456, limits assumed, looked up): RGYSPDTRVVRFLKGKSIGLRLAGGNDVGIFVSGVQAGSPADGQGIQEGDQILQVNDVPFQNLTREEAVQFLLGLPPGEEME

For the next test, the target named is T13, MPDZ_10, O75970.
T13 sequence (O75970 1624-1722, limits assumed, looked up): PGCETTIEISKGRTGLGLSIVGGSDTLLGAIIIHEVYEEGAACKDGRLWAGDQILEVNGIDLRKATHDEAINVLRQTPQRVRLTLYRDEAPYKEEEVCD

Another test has as its target T14, SNTA1, Q13424.
T14 sequence (Q13424 82-180, limits assumed, looked up): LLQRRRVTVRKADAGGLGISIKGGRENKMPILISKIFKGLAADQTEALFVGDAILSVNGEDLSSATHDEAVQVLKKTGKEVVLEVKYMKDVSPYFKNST

[1] abbreviates: plain residues with an end cap or a label only (N-terminal biotin on a linker: ahx).
The mark [2] stands for this setting: plain residues with an end cap or a label only (N-terminal biotin on a linker: ttds).

Chain of Inadl_4, Q8NI35 (Q8NI35 547-651): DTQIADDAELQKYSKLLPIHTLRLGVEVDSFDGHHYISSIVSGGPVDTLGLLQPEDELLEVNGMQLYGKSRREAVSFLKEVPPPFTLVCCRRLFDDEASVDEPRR
Chain of GRIP2_5, Q9C0E4 (Q9C0E4 544-642): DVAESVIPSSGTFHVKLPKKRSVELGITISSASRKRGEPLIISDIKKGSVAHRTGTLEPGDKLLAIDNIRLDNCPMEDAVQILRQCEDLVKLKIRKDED
Chain of HTRA2, O43464 (O43464 355-458): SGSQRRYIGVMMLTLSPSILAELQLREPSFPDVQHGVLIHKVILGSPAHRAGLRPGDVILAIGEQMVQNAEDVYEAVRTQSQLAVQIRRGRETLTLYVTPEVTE
Chain of TJP1_2, Q07157 (Q07157 181-274): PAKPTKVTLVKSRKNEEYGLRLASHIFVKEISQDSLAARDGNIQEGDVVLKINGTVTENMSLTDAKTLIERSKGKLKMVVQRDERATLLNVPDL
Chain of GRIP2_3, Q9C0E4 (Q9C0E4 238-339): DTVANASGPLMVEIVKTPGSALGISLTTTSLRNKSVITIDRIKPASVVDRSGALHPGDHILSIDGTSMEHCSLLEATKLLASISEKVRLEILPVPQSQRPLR

For orientation: pKd means the negative decadic logarithm of the Kd, by convention in mol/L. For the molecule LSDPSVSTVV [GRIN1, Q05586;Q05586-2], the pKd entry with DFNB31_2, Q9P202 (setting [1]) is “below the threshold”; with TJP1_2, Q07157 (setting [1]), “below the threshold”; with MPP6, Q9NZW5 (setting [1]), “below the threshold”; in the test with APBA1_1, Q02410 (setting [1]), “below the threshold”; in the test with Inadl_4, Q8NI35 (setting [1]) it was “below the threshold”; with SIPA1L2, Q9P2F8 (setting [1]), “below the threshold”. The pKd result in the test with CARD11, Q9BXL7 (setting [1]) is “below the threshold”; in the test with GRIP1_2, Q9Y3R0 (setting [1]) it was “below the threshold”; with GRIP1_5, Q9Y3R0 (setting [1]), “below the threshold”; in the test with GRIP2_5, Q9C0E4 (setting [1]), “below the threshold”; with DLG2_3, Q15700 (setting [1]), 4.26; with GRIP2_3, Q9C0E4 (setting [1]), “below the threshold”. The pKd result in the test with TX1BP3, O14907 (setting [1]) was “below the threshold”; with LNX2_2, Q8N448 (setting [1]), 4.64; with AHNAK1, Q09666 (setting [1]), “below the threshold”; with GRIP1_3, Q9Y3R0 (setting [1]) it was “below the threshold”; in the test with PTPN13_1, Q12923 (setting [1]), “below the threshold”; with TJP3_3, O95049 (setting [1]), “below the threshold”. Also, the negative-log Kd (pKd) result with GORASP2, Q9H8Y8 (setting [1]) is reported as “below the threshold”; in the test with HTRA2, O43464 (setting [1]) it was “below the threshold”; with MPDZ_10, O75970 (setting [1]), “below the threshold”.

In the case of EMDRRPATVV [PLCB4, Q15147], the pKd in the test with DFNB31_2, Q9P202 (setting [2]) was 3.51; with TJP1_2, Q07157 (setting [2]), “below the threshold”; with MPP6, Q9NZW5 (setting [2]), “below the threshold”; in the test with APBA1_1, Q02410 (setting [2]) it was “below the threshold”; with SIPA1L2, Q9P2F8 (setting [2]), “below the threshold”; with CARD11, Q9BXL7 (setting [2]), 3.64. The pKd is 3.72 in the test with GRIP1_2, Q9Y3R0 (setting [2]); “below the threshold” with GRIP1_5, Q9Y3R0 (setting [2]); 4.08 with SNTA1, Q13424 (setting [2]); “below the threshold” in the test with GRIP2_5, Q9C0E4 (setting [2]); 3.86 with DLG2_3, Q15700 (setting [2]); “below the threshold” with GRIP2_3, Q9C0E4 (setting [2]). For the same molecule, the pKd is 3.73 with TX1BP3, O14907 (setting [2]); 4.93 with LNX2_2, Q8N448 (setting [2]); “below the threshold” with AHNAK1, Q09666 (setting [2]); “below the threshold” in the test with GRIP1_3, Q9Y3R0 (setting [2]); “below the threshold” with PTPN13_1, Q12923 (setting [2]); “below the threshold” with TJP3_3, O95049 (setting [2]). The pKd with GORASP2, Q9H8Y8 (setting [2]) was 4.23; with HTRA2, O43464 (setting [2]), “below the threshold”; with MPDZ_10, O75970 (setting [2]) it was 3.7.

PRVKPQRSKV [PPP1R13L, Q8WUF5]: the pKd result with DFNB31_2, Q9P202 (setting [2]) is given as “below the threshold”; with TJP1_2, Q07157 (setting [2]), “below the threshold”; with MPP6, Q9NZW5 (setting [2]), “below the threshold”; in the test with APBA1_1, Q02410 (setting [2]) it was “below the threshold”; in the test with Inadl_4, Q8NI35 (setting [2]), “below the threshold”; with SIPA1L2, Q9P2F8 (setting [2]) it was “below the threshold”. In addition, the pKd entry with CARD11, Q9BXL7 (setting [2]) is “below the threshold”; with GRIP1_2, Q9Y3R0 (setting [2]), “below the threshold”; with GRIP1_5, Q9Y3R0 (setting [2]), 3.65; with SNTA1, Q13424 (setting [2]) it was “below the threshold”; in the test with GRIP2_5, Q9C0E4 (setting [2]) it was “below the threshold”; with DLG2_3, Q15700 (setting [2]) it was “below the threshold”. Moreover, the pKd result in the test with GRIP2_3, Q9C0E4 (setting [2]) was “below the threshold”; with TX1BP3, O14907 (setting [2]) it was 3.82; with LNX2_2, Q8N448 (setting [2]), “below the threshold”; in the test with AHNAK1, Q09666 (setting [2]), “below the threshold”; with GRIP1_3, Q9Y3R0 (setting [2]) it was “below the threshold”; with PTPN13_1, Q12923 (setting [2]) it was “below the threshold”. The pKd result is listed as “below the threshold” with TJP3_3, O95049 (setting [2]); “below the threshold” with GORASP2, Q9H8Y8 (setting [2]); “below the threshold” with HTRA2, O43464 (setting [2]); “below the threshold” with MPDZ_10, O75970 (setting [2]).

As for PSASCAVTAA [PDLIM4, P50479;P50479-2], the negative logarithm of the Kd (pKd) result with DFNB31_2, Q9P202 (setting [1]) was “below the threshold”; with TJP1_2, Q07157 (setting [1]), “below the threshold”; with MPP6, Q9NZW5 (setting [1]) it was “below the threshold”; with APBA1_1, Q02410 (setting [1]) it was “below the threshold”; with Inadl_4, Q8NI35 (setting [1]), “below the threshold”; in the test with SIPA1L2, Q9P2F8 (setting [1]), “below the threshold”. In addition, the pKd result is recorded as “below the threshold” with CARD11, Q9BXL7 (setting [1]); “below the threshold” with GRIP1_2, Q9Y3R0 (setting [1]); “below the threshold” with GRIP1_5, Q9Y3R0 (setting [1]); “below the threshold” in the test with SNTA1, Q13424 (setting [1]); “below the threshold” with GRIP2_5, Q9C0E4 (setting [1]); “below the threshold” with DLG2_3, Q15700 (setting [1]). Also, the pKd entry is recorded as “below the threshold” with GRIP2_3, Q9C0E4 (setting [1]); “below the threshold” with TX1BP3, O14907 (setting [1]); “below the threshold” in the test with LNX2_2, Q8N448 (setting [1]); “below the threshold” in the test with AHNAK1, Q09666 (setting [1]); “below the threshold” with GRIP1_3, Q9Y3R0 (setting [1]); “below the threshold” with PTPN13_1, Q12923 (setting [1]). In addition, the pKd result with TJP3_3, O95049 (setting [1]) is “below the threshold”; with GORASP2, Q9H8Y8 (setting [1]), “below the threshold”; with HTRA2, O43464 (setting [1]), “below the threshold”.

With NDPAWDETNL [ARHGEF7, Q14155;Q14155-1], the pKd entry with DFNB31_2, Q9P202 (setting [2]) is listed as “below the threshold”; in the test with TJP1_2, Q07157 (setting [2]), “below the threshold”; in the test with MPP6, Q9NZW5 (setting [2]), “below the threshold”; in the test with APBA1_1, Q02410 (setting [2]) it was “below the threshold”; with Inadl_4, Q8NI35 (setting [2]) it was “below the threshold”; in the test with SIPA1L2, Q9P2F8 (setting [2]), “below the threshold”. Further, the pKd result was “below the threshold” with CARD11, Q9BXL7 (setting [2]); “below the threshold” with GRIP1_2, Q9Y3R0 (setting [2]); “below the threshold” in the test with GRIP1_5, Q9Y3R0 (setting [2]); “below the threshold” with GRIP2_5, Q9C0E4 (setting [2]); “below the threshold” in the test with DLG2_3, Q15700 (setting [2]); “below the threshold” in the test with GRIP2_3, Q9C0E4 (setting [2]). For the same molecule, the pKd with TX1BP3, O14907 (setting [2]) is 5.76; with LNX2_2, Q8N448 (setting [2]) it was “below the threshold”; in the test with AHNAK1, Q09666 (setting [2]) it was “below the threshold”; in the test with GRIP1_3, Q9Y3R0 (setting [2]), “below the threshold”; with PTPN13_1, Q12923 (setting [2]), “below the threshold”; with TJP3_3, O95049 (setting [2]), “below the threshold”. The pKd entry with GORASP2, Q9H8Y8 (setting [2]) was “below the threshold”; in the test with HTRA2, O43464 (setting [2]) it was “below the threshold”; with MPDZ_10, O75970 (setting [2]), “below the threshold”.
